B1: biotin-labeled chicken ovalbumin (bOVA) (other, UniProt P01012 2-386, looked up)
chain: GSIGAASMEFCFDVFKELKVHHANENIFYCPIAIMSALAMVYLGAKDSTRTQINKVVRFDKLPGFGDSIEAQCGTSVNVHSSLRDILNQITKPNDVYSFSLASRLYAEERYPILPEYLQCVKELYRGGLEPINFQTAADQARELINSWVESQTNGIIRNVLQPSSVDSQTAMVLVNAIVFKGLWEKAFKDEDTQAMPFRVTEQESKPVQMMYQIGLFRVASMASEKMKILELPFASGTMSMLVLLPDEVSGLEQLESIINFEKLTEWTSSNVMEERKIKVYLPRMKMEEKYNLTSVLMAMGITDVFSSSANLSGISSAESLKISQAVHAAHAEINEAGREVVGSAEAGVDAASVSEEFRADHPFLFCIKHIATNAVLFFGRCVSP
modifications: biotin-labeled (sites not given)

Assays:
[1] = target: B1; assay: cell-based or functional assay
TAP1 = target: T1, TAP1 (mouse (endogenous in mouse DC2.4 cells), UniProt P21958 1-724); assay: co-immunoprecipitation with anti-TAP1 from DC2.4 lysate, blot with SA-HRP
T1 construct: Endogenous protein in the cell lysate; also called TAP1/2
T1 sequence (looked up): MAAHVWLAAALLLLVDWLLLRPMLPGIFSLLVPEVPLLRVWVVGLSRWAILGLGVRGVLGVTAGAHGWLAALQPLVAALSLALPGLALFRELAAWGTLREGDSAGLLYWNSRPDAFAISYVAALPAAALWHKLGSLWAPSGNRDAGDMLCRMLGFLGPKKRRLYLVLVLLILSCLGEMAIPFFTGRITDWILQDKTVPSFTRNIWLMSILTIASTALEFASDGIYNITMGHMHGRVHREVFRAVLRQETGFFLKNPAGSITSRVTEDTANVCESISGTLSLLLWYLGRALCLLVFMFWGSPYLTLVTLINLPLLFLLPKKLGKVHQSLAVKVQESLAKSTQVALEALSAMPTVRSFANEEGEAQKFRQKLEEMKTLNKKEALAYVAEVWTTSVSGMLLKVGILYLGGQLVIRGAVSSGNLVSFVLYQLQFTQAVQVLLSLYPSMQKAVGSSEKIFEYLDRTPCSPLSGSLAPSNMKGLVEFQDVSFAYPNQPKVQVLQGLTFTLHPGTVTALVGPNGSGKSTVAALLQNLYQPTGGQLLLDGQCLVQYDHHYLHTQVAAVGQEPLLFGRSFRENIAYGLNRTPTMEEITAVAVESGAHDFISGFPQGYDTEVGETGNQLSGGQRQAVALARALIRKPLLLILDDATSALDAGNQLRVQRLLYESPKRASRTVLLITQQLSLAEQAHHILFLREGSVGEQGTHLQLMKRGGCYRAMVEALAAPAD
Description: (§1) DC2.4 cells were incubated with bOVA and subjected to co-immunoprecipitation with anti-Sec61α. bOVA was added at 2.5 mg mL⁻¹ to cell lysates before immunoprecipitation (the two left-hand lanes in each panel).
(§2) 2×10⁷ DC2.4 or BMDC cells were cultured for four hours in a medium containing 10 μM MG-132 in the presence of bOVA at 250 μg mL⁻¹. Cells were lysed in 20 mM HEPES pH7.6 containing 1% digitonin and protease inhibitors to collect biotin-labeled samples. The samples were cleared of impurities in advance using protein G sepharose (Amersham Pharmacia Biotech), and after incubation with antibodies for precipitation (anti-Sec61β, anti Sec61α, anti-VCP, anti-BiP, anti-PDI, anti-calreticulin, anti-TAP1, and anti-TAP2), the immunoprecipitates were collected using protein G. When chicken anti-CHIP antibody was used, immunoprecipitates were collected using a rabbit anti-IgY column (a person, MBL). The precipitated samples were analyzed by SDS-PAGE and Western blotting.

TAP2 = target: T2, TAP2 (mouse (endogenous in mouse DC2.4 cells), UniProt P36371 1-702); assay: co-immunoprecipitation with anti-TAP2 from DC2.4 lysate, blot with SA-HRP
T2 construct: Endogenous protein in the cell lysate; also called TAP1/2
T2 sequence (looked up): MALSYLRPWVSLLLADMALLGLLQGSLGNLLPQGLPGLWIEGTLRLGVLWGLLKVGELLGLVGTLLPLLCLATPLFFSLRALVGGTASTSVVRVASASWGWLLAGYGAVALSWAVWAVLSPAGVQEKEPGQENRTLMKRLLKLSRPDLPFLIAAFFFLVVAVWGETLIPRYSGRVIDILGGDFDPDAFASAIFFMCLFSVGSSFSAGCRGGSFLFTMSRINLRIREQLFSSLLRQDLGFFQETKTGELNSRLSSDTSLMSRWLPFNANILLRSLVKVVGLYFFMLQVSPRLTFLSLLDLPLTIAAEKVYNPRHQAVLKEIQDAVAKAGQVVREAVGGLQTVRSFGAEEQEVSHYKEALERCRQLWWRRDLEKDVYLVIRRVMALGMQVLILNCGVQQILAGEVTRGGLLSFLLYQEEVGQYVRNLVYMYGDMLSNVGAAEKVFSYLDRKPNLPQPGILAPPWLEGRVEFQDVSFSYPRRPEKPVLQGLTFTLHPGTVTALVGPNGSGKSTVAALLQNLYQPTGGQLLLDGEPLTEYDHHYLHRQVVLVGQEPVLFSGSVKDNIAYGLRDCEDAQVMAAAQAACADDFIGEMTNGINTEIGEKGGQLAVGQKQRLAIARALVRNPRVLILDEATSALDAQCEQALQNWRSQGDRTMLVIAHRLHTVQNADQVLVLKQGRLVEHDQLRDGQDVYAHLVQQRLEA
Description: as §1, §2

Row | Binder | polyubiquitination of bOVA in CHIP-knocked-down DC2.4 cells relative to parental cells [1] [%] | binding result (TAP1) | binding result (TAP2)
1 | CHIP, an E3-ubiquitin ligase (enzyme, mouse (endogenous in mouse DC2.4 cells), UniProt Q9WUD1 1-304, looked up) MKGKEEKEGGARLGTGGGGSPDKSPSAQELKEQGNRLFVGRKYPEAAACYGRAITRNPLVAVYYTNRALCYLKMQQPEQALADCRRALELDGQSVKAHFFLGQCQLEMESYDEAIANLQRAYSLAKEQRLNFGDDIPSALRIAKKKRWNSIEERRIHQESELHSYLTRLIAAERERELEECQRNHEGHEDDGHIRAQQACIEAKHDKYMADMDELFSQVDEKRKKRDIPDYLCGKISFELMREPCITPSGITYDRKDIEEHLQRVGHFDPVTRSPLTQEQLIPNLAMKEVIDAFISENGWVEDY | 34 | – | –
2 | B1 | – | no binding | no binding

From patent US20080194020A1 (MEDICAL AND BIOLOGICAL LABORATORIES, published 2008)
